Results taken from publication PMC8115264, “Mitofusin-2 stabilizes adherens junctions and suppresses endothelial inflammation via modulation of β-catenin signaling” (Nature Communications, 2021).

Molecular target: T1, GFP-Mfn2 (UniProt O95140 1-757)
T1 construct: The construct was generated in the authors' laboratory; also called lentiviral GFP-Mfn2; GFP-tagged Mfn2; source: HLMVECs, lentiviral expression (pWPXL), in lysate
T1 sequence (looked up): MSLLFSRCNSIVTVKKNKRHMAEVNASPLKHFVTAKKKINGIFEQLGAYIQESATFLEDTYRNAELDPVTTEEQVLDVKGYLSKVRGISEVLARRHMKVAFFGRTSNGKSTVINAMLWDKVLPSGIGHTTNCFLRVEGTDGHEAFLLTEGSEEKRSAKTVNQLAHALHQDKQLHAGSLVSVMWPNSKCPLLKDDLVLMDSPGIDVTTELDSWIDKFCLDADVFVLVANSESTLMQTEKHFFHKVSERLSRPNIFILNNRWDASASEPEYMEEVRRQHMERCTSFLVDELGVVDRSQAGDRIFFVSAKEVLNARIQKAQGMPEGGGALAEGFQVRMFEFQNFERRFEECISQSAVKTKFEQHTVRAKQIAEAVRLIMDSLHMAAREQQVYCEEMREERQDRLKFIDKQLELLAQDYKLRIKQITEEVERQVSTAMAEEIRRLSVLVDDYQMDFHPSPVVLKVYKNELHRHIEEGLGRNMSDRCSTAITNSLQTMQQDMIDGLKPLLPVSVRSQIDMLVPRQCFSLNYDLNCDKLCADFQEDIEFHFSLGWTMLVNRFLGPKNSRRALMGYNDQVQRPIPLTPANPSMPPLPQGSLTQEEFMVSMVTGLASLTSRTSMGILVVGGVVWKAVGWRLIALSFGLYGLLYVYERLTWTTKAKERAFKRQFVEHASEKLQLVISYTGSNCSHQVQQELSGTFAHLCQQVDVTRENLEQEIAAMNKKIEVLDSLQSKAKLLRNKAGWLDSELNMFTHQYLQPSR
Experiment: co-IP; HLMVECs expressing GFP or GFP-Mfn2, with or without TNFα (10 ng/mL) for 6 h; GFP-Mfn2 immunoprecipitated with GFP-trap magnetic agarose, Western blot for β-catenin and Mfn2
Settings: partners not purified

fold increase of the interaction after TNFα against basal: 6 fold
B1: β-catenin (natural protein, human (endogenous in HLMVECs), UniProt P35222 1-781, looked up)
chain: MATQADLMELDMAMEPDRKAAVSHWQQQSYLDSGIHSGATTTAPSLSGKGNPEEEDVDTSQVLYEWEQGFSQSFTQEQVADIDGQYAMTRAQRVRAAMFPETLDEGMQIPSTQFDAAHPTNVQRLAEPSQMLKHAVVNLINYQDDAELATRAIPELTKLLNDEDQVVVNKAAVMVHQLSKKEASRHAIMRSPQMVSAIVRTMQNTNDVETARCTAGTLHNLSHHREGLLAIFKSGGIPALVKMLGSPVDSVLFYAITTLHNLLLHQEGAKMAVRLAGGLQKMVALLNKTNVKFLAITTDCLQILAYGNQESKLIILASGGPQALVNIMRTYTYEKLLWTTSRVLKVLSVCSSNKPAIVEAGGMQALGLHLTDPSQRLVQNCLWTLRNLSDAATKQEGMEGLLGTLVQLLGSDDINVVTCAAGILSNLTCNNYKNKMMVCQVGGIEALVRTVLRAGDREDITEPAICALRHLTSRHQEAEMAQNAVRLHYGLPVVVKLLHPPSHWPLIKATVGLIRNLALCPANHAPLREQGAIPRLVQLLVRAHQDTQRRTSMGGTQQQFVEGVRMEEIVEGCTGALHILARDVHNRIVIRGLNTIPLFVQLLYSPIENIQRVAAGVLCELAQDKEAAEAIEAEGATAPLTELLHSRNEGVATYAAAVLFRMSEDKPQDYKKRLSVELTSSLFRTEPMAWNETADLGLDIGAQGEPLGYRQDDPSYRSFHSGGYGQDALGMDPMMEHEMGGHHPGADYPVDGLPDLGHAQDLMDGLPPGDSNQLAWFDTDL
notes: β-catenin, endogenous in human lung microvascular endothelial cells; also called beta-catenin; source: endogenous, HLMVEC lysate or fixed HLMVECs
